Where a chain is given by its changes, count along the chain named.
B1: TCR-like antibody H9 #1 (IgG form, mouse IgG2a / mouse kappa) (antibody, V domains shown)
VH: EVQLVQSGAEVKKPGSSVKVSCKASGGTFSSYAISWVRQAPGQGLEWMGGIIPIFGTANYAQKFQGRVTITADESTSTAYMELSSLRSEDTAVYYCARGDLYYYDSSGYPLWYMDYWGQGTLVTVSS
VL: ETTLTQSPGTLSLSPGERATLSCRASQSVSSSYLAWYQQKPGQAPRLVIYGASSRATGIPDRFSGSGSGTDFTLTISRLEPEDFAVYYCQDYSTYPAFTFGQGTKLEIR
notes: also called #1 clone in IgG form
B2: TCR-like antibody H9 #1-17 (IgG form, mouse IgG2a / mouse kappa) (antibody, V domains shown)
VH: B1 VH with G50S, T57V, N59E, Q62H
VL: B1 VL with S54T, A56P
B3: TCR-like antibody H9 #1-30 (IgG form, mouse IgG2a / mouse kappa) (antibody, V domains shown)
VH: B1 VH with G50S, T57A, N59E
VL: B1 VL with A56P, T57R
B4: TCR-like antibody H9 #38 (IgG form, mouse IgG2a / mouse kappa) (antibody, V domains shown)
VH: B1 VH with L111W, W112Y
VL: B1 VL with D91H, Y92S, S93Y, T94A, Y95F, A97G
notes: also called #38 clone in IgG form
B5: TCR-like antibody H9 (chimeric full-length IgG, mouse IgG2a / mouse kappa) (antibody, V domains shown)
VH: B1 VH with L111R, W112Y, M114F
VL: B1 VL with D91H, Y95S, A97G
notes: also called H9 clone; H9 antibody

Columns and labels:
[1] = molecular target: T1, cell-surface HPVE11-19/HLA-A*02:01 complex (HPV16; human); assay: flow cytometry, MDA-MB-231 pulsed with HPVE11-19 peptide, Alexa647 anti-mouse Fc
T1 construct: whole, on cells

[2] = molecular target: T2, cell-surface CMVP495-503/HLA-A*02:01 complex (human cytomegalovirus (CMV); human); assay: flow cytometry, MDA-MB-231 pulsed with 4 µM CMVP495-503 peptide, Alexa647 anti-mouse Fc
T2 construct: whole, on cells; also called CMV pp65 peptide complex
Description: After completion of pulsing, the cells were washed with a FACS buffer and then centrifuged at 1300 rpm for 3 minutes to remove the supernatant. […] After washing each sample with 1 ml of a FACS buffer, a F(ab′)2 antibody that specifically recognizes Alexa647 (red fluorescence)-conjugated mouse Fc was diluted 1:600 in 100 μl of a FACS buffer, followed by reaction at 4° C. for 30 minutes.

[3] = molecular target: T2, cell-surface CMVP495-503/HLA-A*02:01 …; assay: flow cytometry, cells pulsed with 50 µM CMVP495-503 peptide, Alexa647 anti-mouse Fc
Description: After washing each sample with 1 ml of a FACS buffer, a F(ab′)2 antibody (Jackson ImmunoResearch, USA) that specifically recognizes Alexa647 (red fluorescence)-conjugated mouse Fc (Jackson ImmunoResearch, USA) was diluted 1:600 in 100 μl of a FACS buffer, followed by reaction at 4° C. for 30 minutes.
After completion of pulsing, the cells were washed with a FACS buffer and centrifuged at 1300 rpm for 3 minutes to remove the supernatant. […] After washing each sample with 1 ml of a FACS buffer, a F(ab′)2 antibody that specifically recognizes Alexa647 (red fluorescence)-conjugated mouse Fc was diluted 1:600 in 100 μl of a FACS buffer, followed by reaction at 4° C. for 30 minutes.

[4] = molecular target: T2, cell-surface CMVP495-503/HLA-A*02:01 …; assay: flow cytometry, 500 nM antibody on MDA-MB-231 cells pulsed with 50 µM peptide

| Binder | binding result [1] | binding result [2] | binding result [3] | binding result [4] |
| --- | --- | --- | --- | --- |
| B1 | no binding (tested: 50 nM) | binds |  |  |
| B2 | no binding (tested: 50 nM) | binds |  |  |
| B3 | no binding (tested: 50 nM) |  |  |  |
| B4 |  |  | binds |  |
| B5 | no binding (tested: 50 nM) |  |  | binds |
